Biological target: T1, guanylate cyclase (Oryctolagus cuniculus, UniProt G1TXB5)
T1 sequence (G1TXB5 28-1056): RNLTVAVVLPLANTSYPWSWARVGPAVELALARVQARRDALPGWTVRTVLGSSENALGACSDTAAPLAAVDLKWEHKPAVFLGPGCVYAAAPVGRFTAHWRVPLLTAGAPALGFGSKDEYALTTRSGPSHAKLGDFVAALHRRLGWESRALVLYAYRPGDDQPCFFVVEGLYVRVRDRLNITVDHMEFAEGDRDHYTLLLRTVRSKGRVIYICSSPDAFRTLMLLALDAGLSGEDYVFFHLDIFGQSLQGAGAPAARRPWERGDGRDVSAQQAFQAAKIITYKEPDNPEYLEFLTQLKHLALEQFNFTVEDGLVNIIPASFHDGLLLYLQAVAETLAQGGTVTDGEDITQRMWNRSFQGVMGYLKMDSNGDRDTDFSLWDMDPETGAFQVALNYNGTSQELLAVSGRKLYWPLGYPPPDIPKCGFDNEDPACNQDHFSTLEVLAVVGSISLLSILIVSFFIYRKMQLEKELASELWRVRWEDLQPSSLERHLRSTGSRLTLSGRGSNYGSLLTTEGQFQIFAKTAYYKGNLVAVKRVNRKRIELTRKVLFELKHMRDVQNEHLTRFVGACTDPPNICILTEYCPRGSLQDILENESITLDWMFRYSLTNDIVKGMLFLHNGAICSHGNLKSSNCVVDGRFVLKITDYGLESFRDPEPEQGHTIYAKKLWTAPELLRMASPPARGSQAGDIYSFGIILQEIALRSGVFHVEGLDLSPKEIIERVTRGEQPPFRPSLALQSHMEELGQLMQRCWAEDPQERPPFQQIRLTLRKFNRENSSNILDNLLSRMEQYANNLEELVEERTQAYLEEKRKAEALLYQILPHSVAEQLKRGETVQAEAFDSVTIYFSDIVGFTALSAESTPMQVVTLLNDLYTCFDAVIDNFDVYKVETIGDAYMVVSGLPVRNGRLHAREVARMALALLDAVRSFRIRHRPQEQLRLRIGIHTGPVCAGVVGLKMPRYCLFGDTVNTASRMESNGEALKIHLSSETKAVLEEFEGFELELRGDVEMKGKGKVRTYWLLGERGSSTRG
Assay: Atriopeptin-activated guanylate cyclase in ciliary process membrane (P1) fractions
Format: biochemical, rabbit
Design: tissues were homogenized (10 mg wet weight per milliliter); from tissue; host or cells: rabbit cerebral microvessels, choroid plexus, kidney, ciliary process, pia-arachnoid, cerebellum; 100,000 g P1 pellet
Conditions: mean ± range of duplicate determinations
Method: Ciliary process tips were obtained from male, 3-4 kg, New Zealand white rabbits, immediately following sacrifice with an overdose of ether, as described in Nathanson, Invest. Ophthal. Vis. Sci., 21:7981 (1982). The tissue was minced and homogenized (10 mg/ml) by hand in a glass-glass homogenizer in a buffer consisting of 50 mM Tris HCl, pH 8.0; 1mM EDTA, and 250mM sucrose. The homogenate was diluted 30-fold with buffer and centrifuged at 100,000 x g, to obtain a P1 fraction. The pellet was rehomogenized in the original volume and left on ice until use. P1 fractions were also prepared from wedges of rabbit kidney taken from the same animals. In some experiments, P1 fractions were prepared from iris and from ciliary body, as described in Nathanson, Proc. Natl. Acad. Sci. USA, 77:7420 (1980). Briefly, iris was removed from its attachment to the ciliary body, cleaned of adhering ciliary process tissue, washed, and homogenized as above. The ciliary muscle was cleaned of most remaining ciliary process tissue, freed from the underlying sclera by blunt and sharp dissection, and then washed and homogenized.
Atriopeptin-activated guanylate cyclase activity was measured as the rate of conversion of GTP to cyclic GMP. […]
For RIA, each tube contained (in 0.5ml), 50mM sodium acetate buffer (pH 6.2), 2mM EDTA, 1mg/ml bovine serum albumin, 0.1 ml of sample (or diluted sample), 8,000-15,000 cpm (about 5 fmole) of ¹²⁵I succinyl cyclic GMP tyrosine methyl ester, and antibody to bind 25-35% of the label. […] Activation constants (Ka) were determined from dose-response curves utilizing 12-14 data points (6-7 concentrations of hormone, in duplicate), each point representing the mean of triplicate RIA determinations.
Atriopeptin-activated guanylate cyclase activity was measured, as described in Example 5, in membranes from rabbit kidney and ciliary process prepared as in Example 4. […]

| Substance | Vmax Stimulation (%) of Guanylate Cyclase Ciliary Process [%] |
| --- | --- |
| rANP 13-28 (DRIGAQSGLGCNSFRY; Atrial natriuretic peptide; UniProt P01161 135-150, looked up, fragment) | 51 ± 5 |
| Ser-Leu-Arg-Arg-atriopeptin III (APIII) [rANP 1-28] | 124 ± 5 |
